Laboratory results: PMC3046058 (Molecular Biology of the Cell, 2011)

Biological target: His/S-tagged OCRL1, full length, recombinant (human, UniProt Q01968 1-901)
Assay: pull-down

His/S-tagged OCRL1, full length, recombinant, sequence (Q01968 whole entry): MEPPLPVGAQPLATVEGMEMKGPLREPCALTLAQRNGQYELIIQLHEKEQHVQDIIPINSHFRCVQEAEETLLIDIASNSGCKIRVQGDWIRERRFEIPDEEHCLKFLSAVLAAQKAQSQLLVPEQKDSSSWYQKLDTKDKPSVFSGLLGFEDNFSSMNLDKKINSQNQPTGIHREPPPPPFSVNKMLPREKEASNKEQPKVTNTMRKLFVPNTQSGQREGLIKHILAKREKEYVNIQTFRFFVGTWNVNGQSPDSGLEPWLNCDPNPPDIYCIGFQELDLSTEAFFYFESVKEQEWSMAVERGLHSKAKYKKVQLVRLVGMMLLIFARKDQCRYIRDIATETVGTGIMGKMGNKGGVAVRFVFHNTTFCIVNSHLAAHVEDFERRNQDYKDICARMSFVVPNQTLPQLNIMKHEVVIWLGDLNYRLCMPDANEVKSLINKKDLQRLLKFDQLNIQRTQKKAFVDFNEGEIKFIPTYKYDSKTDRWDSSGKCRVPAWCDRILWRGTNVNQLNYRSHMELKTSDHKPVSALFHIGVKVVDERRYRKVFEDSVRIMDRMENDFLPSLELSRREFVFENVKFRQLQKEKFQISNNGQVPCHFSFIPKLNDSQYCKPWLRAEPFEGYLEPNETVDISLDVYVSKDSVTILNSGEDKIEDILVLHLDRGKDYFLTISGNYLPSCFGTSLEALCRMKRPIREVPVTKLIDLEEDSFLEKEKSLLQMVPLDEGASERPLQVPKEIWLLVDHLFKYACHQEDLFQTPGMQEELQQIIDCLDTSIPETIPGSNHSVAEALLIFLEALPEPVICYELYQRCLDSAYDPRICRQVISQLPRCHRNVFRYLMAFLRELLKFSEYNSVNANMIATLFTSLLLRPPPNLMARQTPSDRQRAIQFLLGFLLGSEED

Q: Does SFQQRHESLRP [GST APPL1 (aa 403-413), minimal OCRL1 binding domain of APPL1] bind?
A: binds
